From article doi:10.1101/2024.06.23.600241 (bioRxiv, 2024) come the findings set out here.

For assay [1], the target named is T1, Plasmodium vivax Duffy binding protein region II (PvDBP-RII) (Plasmodium vivax, UniProt P22290 211-508).
T1 chain: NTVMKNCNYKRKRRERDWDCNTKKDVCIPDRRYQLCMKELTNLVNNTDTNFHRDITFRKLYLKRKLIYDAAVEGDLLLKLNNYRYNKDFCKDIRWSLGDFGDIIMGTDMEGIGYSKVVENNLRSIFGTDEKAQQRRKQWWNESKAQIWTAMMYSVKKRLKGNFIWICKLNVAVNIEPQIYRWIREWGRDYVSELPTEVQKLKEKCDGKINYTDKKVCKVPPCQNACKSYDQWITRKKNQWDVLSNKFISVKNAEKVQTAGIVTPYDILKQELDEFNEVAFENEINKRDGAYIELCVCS
Briefly: SPR.

The target of assay [2] is T2, PvDBP-RII subdomain 3 (Plasmodium vivax, UniProt P22290 211-508).
T2 chain: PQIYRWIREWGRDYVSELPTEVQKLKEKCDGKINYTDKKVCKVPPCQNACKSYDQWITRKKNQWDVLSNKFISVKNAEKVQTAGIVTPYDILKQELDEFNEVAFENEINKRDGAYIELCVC
Briefly: SPR. For orientation: Surface plasmon resonance follows binding to a sensor surface in real time, without labels.

Assay [3] has as its target T3, Plasmodium vivax Duffy binding protein region II (PvDBP-RII) (Plasmodium vivax Salvador I (strain as …, UniProt P22290)).
T3 construct: The tag and its TEV cleavage hold only if the pET15b construct was the one used; SalI is named only for the transgenic parasites; also called RII region of PvDBP; source: the same paragraph also says cloned into modified pET15b, expressed in E. coli BL21-DE3; not shown: His-tag, N-terminal, cleaved
In words: SPR; Biacore T200; DB9 captured on a CM5 chip amine-coupled with protein A/G; analytes flowed in a two-fold dilution series from 1 μM; 20mM HEPES pH 7.4, 150mM NaCl, 0.005% Tween-20. The conditions noted are these: both partners purified.

The target in assay [4] is T4, PvDBP-RII subdomain 3 (Plasmodium vivax Salvador I, UniProt P22290).
T4 construct: also called SD3; not shown: His-tag, N-terminal, cleaved
The assay is described as above. The settings on record: both partners purified.

B1: monoclonal antibody DB9 (antibody, V domains shown)
VH: EVQLQESGPGLVKPSETLSLTCTVSGGSVSSSTYYWGWVRQPPGKGLEWIGSIYYSGSTYYNPSLKSRVTISVDTSKNQFSLKLSSVTAADTAVYYCARDGTGALDLWGRGTLVTVSS
VL: DIVMTQSPSTLSASVGDRVTITCRASQSISSWLAWYQQRPGKAPRLLIYKASSLLSGVPSRFGGSGSGTDFTLTISSLQPDDFATYHCQHYNTYPWTFGQGTKVEIK
notes: the Fab part of the heavy chain is in PDB 6R2S and PDB 9EZE; the light chain is in PDB 6R2S and PDB 9EZE
Usually koff stands for the first-order rate constant of dissociation. High values mean fast dissociation, low ones slow dissociation. The term Kd denotes the free concentration of one partner at which half of the binding sites on the other are occupied at equilibrium, for simple one-to-one binding. The low end stands for tighter binding, the high end for weaker binding. B1: the figures for the koff (in assay [1]; with PvDBP-RII subdomain 3 [2]) were 0.000976 s⁻¹ and 0.00172 s⁻¹, respectively. The Kd in assay [3] stood at 2.63 nM; with PvDBP-RII subdomain 3 [4], 1.11 nM.
